Drawing on article PMC7336285, “Metabolite‐based genome‐wide association study enables dissection of the flavonoid decoration pathway of wheat kernels” (Plant Biotechnology Journal, 2020), this text covers Km and kcat for 2 proteins.

Substrate in data set [1]: COc1cc(-c2cc(=O)c3c(O)cc(O[C@@H]4O[C@H](CO)[C@@H](O)[C@H](O)[C@H]4O)cc3o2)cc(OC)c1O
The experiment in a line: LC-MS product assay, Michaelis-Menten fit. In kind it is biochemical, Triticum aestivum. The note with it: formation of tricin 7-O-malonylglucoside, malonyl-CoA 0.03 mM, Tris-HCl pH 7.4, 37 °C.

Substrate in data set [2]: COc1cc(-c2cc(=O)c3c(O)cc(O)cc3o2)cc(OC)c1O
The experiment in a line: LC-MS product assay, Michaelis-Menten fit. The note with it: formation of tricin 4′-O-glucoside (product postulated), UDP-glucose 0.75 mM, MgCl2 10 mM, Tris-HCl pH 7.4, 37 °C. The format is biochemical, Triticum aestivum.

B1: TraesCS2B01G472400 (Triticum aestivum) (protein)
chain: MARLLRTSLVAPSPAGAALHERSLPLTYLDALWLHATPVERVFFYPNATSDVLSNLTDSLSNALAAFYPLAGRLRLTPGAHNRYELHCQPGDGVTFTVAEYHHVGFDELATDEPTEVAKIVPLVPPLPEGGAVLAVQATVLRGGLAIGVTVHHAACDGVSSTHFLRTWAWAAAACSGASAPVPPFVDRSIIRARDDLYDAFTAPRLSSNDDDDGGKPPDSPVVQQLLATFTLSKEHLQSIKEAVAGEAERRGVPLPRATSIIAAFGFIWQCYVRAKPGTDGKAGSSCGGRAYFLLPADHRTRLEPPVPDEYLGNCLGPCIALAPRRDVAAAGADGLFTACAAIATAIDGVVRSGPGCWDGWMERIIEAYTAGDLPLTVAGSPRFRVYDTDFGFGRPAKVDVVSVARTGAMSVAEARSGGGGVEVGISLSAGAMERFNECFADAIASLSS
notes: GST-tagged (pGEX-6p-1), E. coli BL21(DE3), glutathione Sepharose purified, tag cleavage not mentioned
Usually Km stands for the substrate concentration at which the rate is half of its maximum. Broadly, the kcat is the number of substrate molecules converted per active site and unit of time at saturation. For B1, in data set [1], the Km worked out at 20.53 ± 1.02 µM and the kcat came to 81.72 ± 6.11 s⁻¹.

B2: TraesCS1A01G347100 (Triticum aestivum) (protein)
chain: MEAANPNPTVVLHACLGVGHLIPMVELAKLFLLRGVPVVIAVPTPPASTADFFSSTASAVAGLEAANPSIAFHHLPPPDYPDPDPHPFLQMLDLLRLTVPSLLAFLRSLPSVAALVLDLFCIDSLDAAAQTGVPAYIYYTSSAGDLAAFLHLPHHFATTEGSFRDMGKAPLRFPGVPPIPASDMPHTVMDRADPICTIRIGHYGRIPEARGVLVNTYEWLEARAVGALREGVCVPGRPTPPVYCIGPLIVSDSAAAQGERHACLSWLDAQPERSVVFLCFGSMGAVSAAELKEIAHGLENSGHRFLWVVRTPPADPAKFFLPRPEPDLDALLPEGFTERTRDRGMVLKMWAPQVEVLRHAATGAFVTHCGWNSVLEAASAGVPMLCWPQYAEQRLNKEFVVDEMKVGVVMEGYDEELVRAEEVERKVRLVMESEEGEKLRERLALAKEKAAEAMADGGPSRMALAEFLKHSKLST
notes: as for B1
B2: in data set [2], the Km is 6.49 ± 0.71 µM.
